From paper PMC7800377

Tests used:
[1] = biological target: SUN domain of human SUN1 (amino acid residues 616–812), tags removed (human); experiment: SEC-MALS; SUN1-KASH4 after removal of bound zinc by treatment with EDTA
[2] = biological target: SUN domain of human SUN1 (amino acid residues 616–812), tags removed (human); experiment: SEC-MALS; co-expressed and co-purified samples at >1 mg/ml on Superdex 200 Increase 10/300 GL in 20 mM Tris pH 8.0, 150 mM KCl, 2 mM DTT
[3] = biological target: SUN1 I673E (SUN domain of human SUN1, residues 616–812, I673E), GCN4 tag removed (human); experiment: as above

| Binder | stoichiometry N (binder:target ratio (6:6)) [1] | stoichiometry N (binder:target ratio (12:12)) [1] | stoichiometry N (binder:target ratio (6:6)) [2] | stoichiometry N (binder:target ratio (6:6)) [3] |
| --- | --- | --- | --- | --- |
| ASGGPCCSHARIPRTPYLVLSYVNGLPPV (domain or fragment) [KASH domain of human Nesprin-4 (KASH4, amino acid residues 376–404), tags removed] | 1 | 1 | 1 | 1 |
| GPSPPPTWPHLQLCYLQPPPV (domain or fragment) [KASH domain of human KASH5 (amino acid residues 542–562), tags removed] | – | – | 1 | – |
